Measured values as given in US20260151494A1 (ARO BIOTHERAPEUTICS, published 2026).
Substitutions are numbered along the chain they refer to.

B1: CD71-binding FN3 domain of SEQ ID NO: 140 (designed binder)
chain: MSLPAPKNLVVSRVTEDSARLSWTAPDAAFDSFFIGYLEPQPPGEAIHLYVPGSERSYDLTGLKPGTEYNVTIQGVKGGFPSMPLSAIFTT
B2: CD71-binding FN3 domain of SEQ ID NO: 197 (designed binder)
chain: B1 chain with H48S, Y50L, M83E, S86H
B3: CD71-binding FN3 domain of SEQ ID NO: 163 (designed binder)
chain: B1 chain with A46V, N70V, T72F, Q74G, F80V, P81W, M83V
B4: CD71-binding FN3 domain of SEQ ID NO: 161 (designed binder)
chain: B1 chain with H48V, Y50T, M83E, S86V, I88H
B5: CD71-binding FN3 domain of SEQ ID NO: 147 (designed binder)
chain: B1 chain with H48E, Y50F, M83G, S86I, I88S
B6: CD71-binding FN3 domain of SEQ ID NO: 180 (designed binder)
chain: B1 chain with H48S, M83E, S86I, I88N
B7: CD71-binding FN3 domain of SEQ ID NO: 145 (designed binder)
chain: B1 chain with H48A, Y50L, M83H, I88K
B8: CD71-binding FN3 domain of SEQ ID NO: 167 (designed binder)
chain: B1 chain with H48V, Y50T, M83V, I88A
B9: CD71-binding FN3 domain of SEQ ID NO: 179 (designed binder)
chain: B1 chain with H48T, Y50L, M83H, S86V, I88T, F89T
B10: CD71-binding FN3 domain of SEQ ID NO: 168 (designed binder)
chain: B1 chain with F34I, G44D, H48A, M83L, S86V, I88T
B11: CD71-binding FN3 domain of SEQ ID NO: 143 (designed binder)
chain: MSLPAPKNLVVSRVTEDSARLSWTAPDAAFDSFAIQYVEVIGSGEAIELIVPGSERSYDLTGLKPGTEYHVYIDGVKGGKDSKPLYAGFTT
B12: CD71-binding FN3 domain of SEQ ID NO: 162 (designed binder)
chain: MSLPAPKNLVVSRVTEDSARLSWTALDAAFDSFEISYWEHTFNGEAIILFVPGSERSYDLTGLKPGTEYYVTIGGVKGGAWSPPLWAEFTT
B13: CD71-binding FN3 domain of SEQ ID NO: 198 (designed binder)
chain: MSLPAPKNLVVSRVTEDSARLSWTAPDAAFDSFLIGYTEYSVYGEAIVLTVPGSERSYDLTGLKPGTEYTVWIMGVKGGIKSTPLSAISTT
B14: CD71-binding FN3 domain of SEQ ID NO: 178 (designed binder)
chain: MGSLPAPKNLVVSRVTEDSARLSWTAPDAAFDSFFIGYLEPQPPGEAISLYVPGSERSYDLTGLKPGTEYNVTIQGVKGGFPSDPLVAHFTT
B15: CD71-binding FN3 domain of SEQ ID NO: 142 (designed binder)
chain: MSLPAPKNLVVSRVTEDSARLSWTASDAAFDSFHIWYFEKANEGEAIPLVVPGSERSYDLTGLKPGTEYDVDIGGVKGGAWSIPLGARFTT
B16: CD71-binding FN3 domain of SEQ ID NO: 204 (designed binder)
chain: MSLPAPKNLVVSRVTEDSARLSWTAPDAAFDSFLIQYDEWPTYGEAIVLTVPGSERSYDLTGLKPGTEYLVEIVGVKGGNLSGPLSAIFTT
B17: CD71-binding FN3 domain of SEQ ID NO: 218 (designed binder)
chain: MSLPAPKNLVVSRVTEDSARLSWTAPDAAFDSFEIAYHEDDFYGEAIALLVPGSERSYDLTGLKPGTEYIVHIGGVKGGFFSSPLYAWFTT
B18: CD71-binding FN3 domain SEQ ID NO: 235 (designed binder)
chain: MSLPAPKNLVVSRVTEDSARLSWTAPDAAFDSFEIVYAEPVRFGEAIVLTVPGSERSYDLTGLKPGTEYWVQIGGVKGGNWSAPLSAIFTT
B19: CD71-binding FN3 domain SEQ ID NO: 247 (designed binder)
chain: B18 chain with V36G, A38F, P40N, V41L, R42Y, F43L, N80E
B20: CD71-binding FN3 domain SEQ ID NO: 246 (designed binder)
chain: MSLPAPKNLVVSRVTEDSARLSWTAPDAAFDSFEIAYQELSLWGEAIVLTVPGSERSYDLTGLKPGTEYYVHIGGVKGGIWSSPLSAYFTT
B21: CD71-binding FN3 domain SEQ ID NO: 242 (designed binder)
chain: B18 chain with V36G, A38F, P40N, V41L, R42Y, F43L, E68K
B22: CD71-binding FN3 domain SEQ ID NO: 254 (designed binder)
chain: B18 chain with V36G, A38F, P40N, V41L, R42Y, F43L, T50W
B23: CD71-binding FN3 domain SEQ ID NO: 271 (designed binder)
chain: MSLPAPKNLVVSRITEDSARLSWTAPDAAFDSFEIGYWENAYKGEAIVLTVPGSERSYDLTGLKPGTEYVVFIGGVKGGVWSVPLSAIFTT
B24: CD71-binding FN3 domain SEQ ID NO: 239 (designed binder)
chain: B18 chain with A38Q, P40N, V41S, R42A, F43Y
B25: CD71-binding FN3 domain SEQ ID NO: 238 (designed binder)
chain: B23 chain with I14V, W38F, A41D, K43F, V80K, V83A
B26: CD71-binding FN3 domain SEQ ID NO: 248 (designed binder)
chain: B23 chain with I14V, W38F, A41L, K43L, V80D, W81F, V83P
B27: CD71-binding FN3 domain SEQ ID NO: 249 (designed binder)
chain: B23 chain with I14V, K43R
B28: CD71-binding FN3 domain SEQ ID NO: 257 (designed binder)
chain: B23 chain with R13H, I14V
B29: CD71-binding FN3 domain SEQ ID NO: 255 (designed binder)
chain: B18 chain with A25T, V36A, A38F, P40I, V41A, R42W, F43L, N80A, W81Y, A83T
B30: CD71-binding FN3 domain SEQ ID NO: 272 (designed binder)
chain: B18 chain with V36A, A38G, P40A, V41A, R42Y, F43D, V48A, T50L
B31: CD71-binding FN3 domain SEQ ID NO: 251 (designed binder)
chain: B18 chain with V36G, A38F, P40N, V41L, R42Y, F43L, S86V, I88T
B32: CD71-binding FN3 domain SEQ ID NO: 269 (designed binder)
chain: B23 chain with I14V, W38F, A41D, K43F, V80N, V83A
B33: CD71-binding FN3 domain SEQ ID NO: 268 (designed binder)
chain: B18 chain with V36G, A38F, P40N, V41L, R42Y, F43L, L60P
B34: CD71-binding FN3 domain SEQ ID NO: 263 (designed binder)
chain: B18 chain with V36G, A38F, P40N, V41L, R42Y, F43L, A83S
B35: CD71-binding FN3 domain SEQ ID NO: 237 (designed binder)
chain: B18 chain with V36A, A38F, P40R, V41T, R42W, N80D, A83K
B36: CD71-binding FN3 domain SEQ ID NO: 250 (designed binder)
chain: B18 chain with V36G, A38F, P40N, V41L, R42Y, F43L, K77N
B37: CD71-binding FN3 domain SEQ ID NO: 256 (designed binder)
chain: B18 chain with A5V, V36G, A38F, P40N, V41L, R42Y, F43L
B38: CD71-binding FN3 domain SEQ ID NO: 244 (designed binder)
chain: B23 chain with I14V, W38F, A41L, K43L, V80E, W81Y, V83I
B39: CD71-binding FN3 domain SEQ ID NO: 236 (designed binder)
chain: B18 chain with A25E, V36G, A38F, P40N, V41L, R42Y, F43L

The binders below were run against T1, human CD71 extracellular domain (human, UniProt P02786 89-760) (assay: primary ELISA, signal ratio to HSA).
T1 construct: also called hCD71; human CD71-ECD
T1 sequence (P02786 89-760): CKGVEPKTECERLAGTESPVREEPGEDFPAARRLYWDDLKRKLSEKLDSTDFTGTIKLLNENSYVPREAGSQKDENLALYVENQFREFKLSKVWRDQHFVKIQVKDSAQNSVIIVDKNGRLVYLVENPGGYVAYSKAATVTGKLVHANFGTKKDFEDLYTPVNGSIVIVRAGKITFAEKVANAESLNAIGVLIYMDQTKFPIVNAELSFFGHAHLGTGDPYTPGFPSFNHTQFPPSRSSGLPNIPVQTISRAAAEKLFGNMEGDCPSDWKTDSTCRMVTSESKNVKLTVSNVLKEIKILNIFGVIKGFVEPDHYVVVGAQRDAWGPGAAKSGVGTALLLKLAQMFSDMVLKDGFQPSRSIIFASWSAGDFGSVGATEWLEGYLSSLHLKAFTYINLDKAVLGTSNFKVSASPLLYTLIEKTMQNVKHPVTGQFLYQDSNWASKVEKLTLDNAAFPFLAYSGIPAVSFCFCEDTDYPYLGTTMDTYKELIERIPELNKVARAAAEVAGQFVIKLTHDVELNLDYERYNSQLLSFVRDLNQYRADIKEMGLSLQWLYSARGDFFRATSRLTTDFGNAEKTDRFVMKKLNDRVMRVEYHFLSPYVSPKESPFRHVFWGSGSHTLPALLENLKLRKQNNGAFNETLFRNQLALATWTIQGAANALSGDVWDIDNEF
For RLU in this document: test concentration or dose not given here.

Binder	hCD71:HSA
B1	163
B2	36
B3	65
B4	13
B5	173
B6	275
B7	158
B8	66
B9	39
B10	32
B11	94
B12	240
B13	84
B14	319
B15	65
B16	243
B17	77

What follows are binders tested against T2, apical domain of cynomolgus CD71 (cynomolgus, UniProt A0A2K5X958 189-383) (assay: primary ELISA, signal ratio to HSA).
T2 construct: domain: apical domain; also called Cyno apical domain
T2 sequence (A0A2K5X958 entry or part of it): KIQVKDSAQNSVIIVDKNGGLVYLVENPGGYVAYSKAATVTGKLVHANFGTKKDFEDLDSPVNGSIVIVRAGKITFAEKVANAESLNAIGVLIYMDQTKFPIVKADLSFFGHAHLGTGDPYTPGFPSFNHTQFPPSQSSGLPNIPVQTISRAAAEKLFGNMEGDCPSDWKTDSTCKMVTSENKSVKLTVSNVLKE

Binder	Cyno apical domain:HSA
B1	199
B2	66
B3	225
B4	14
B5	208
B6	251
B7	196
B8	83
B9	45
B10	39
B11	142
B12	296
B13	116
B14	272
B15	95
B16	325
B17	149

These binders were tested against T1, human CD71 extracellular domain (assay: primary ELISA; also: test concentration or dose not given here).

Binder	RLU
B1	5.72e+06 RLU
B2	3.4e+06 RLU
B3	1.5e+06 RLU
B4	5.73e+06 RLU
B5	5.56e+06 RLU
B6	6.68e+06 RLU
B7	5.14e+06 RLU
B8	4.72e+06 RLU
B9	4.11e+06 RLU
B10	3.94e+06 RLU
B11	2.91e+06 RLU
B12	4.46e+06 RLU
B13	3.62e+06 RLU
B14	7.01e+06 RLU
B15	3.57e+06 RLU
B16	4.09e+06 RLU
B17	2.42e+06 RLU

What follows are binders tested against T2, apical domain of cynomolgus CD71 (assay: primary ELISA; also: test concentration or dose not given here).

Binder	RLU
B1	7.01e+06 RLU
B2	6.23e+06 RLU
B3	5.14e+06 RLU
B4	6.09e+06 RLU
B5	6.67e+06 RLU
B6	6.09e+06 RLU
B7	6.36e+06 RLU
B8	5.93e+06 RLU
B9	4.71e+06 RLU
B10	4.84e+06 RLU
B11	4.41e+06 RLU
B12	5.49e+06 RLU
B13	4.95e+06 RLU
B14	5.99e+06 RLU
B15	5.27e+06 RLU
B16	5.46e+06 RLU
B17	4.72e+06 RLU

The binders below were run against T3, human CD71 extracellular domain (CD71-ECD) (human, UniProt P02786 89-760) (assay: primary ELISA, RLU ratio to HSA).
T3 construct: also called hCD71; human CD71-ECD
T3 sequence (P02786 89-760): as the sequence (P02786 89-760) above

Binder	hCD71:HSA
B18	376
B19	442
B20	362
B21	165
B22	289
B23	180
B24	154
B25	576
B26	375
B27	350
B28	378
B29	90
B30	289
B31	724
B32	348
B33	133
B34	208
B35	535
B36	140
B37	193
B38	392
B39	101

The binders below were run against T3, human CD71 extracellular domain … (assay: primary ELISA; also: test concentration or dose not given here).

Binder	RLU
B18	3.8e+06 RLU
B19	2.89e+06 RLU
B20	3.68e+06 RLU
B21	1.61e+06 RLU
B22	3.29e+06 RLU
B23	2.57e+06 RLU
B24	1.88e+06 RLU
B25	3.86e+06 RLU
B26	3.49e+06 RLU
B27	3.02e+06 RLU
B28	2.83e+06 RLU
B29	3.73e+06 RLU
B30	2.83e+06 RLU
B31	4.09e+06 RLU
B32	4.35e+06 RLU
B33	4.1e+06 RLU
B34	3.32e+06 RLU
B35	3.98e+06 RLU
B36	3.41e+06 RLU
B37	2.39e+06 RLU
B38	3.25e+06 RLU
B39	3.29e+06 RLU
